Earlier results on 2 substances are cited in PMC9797105.

In general, Kd refers to the concentration at which binding is half-saturated.

In data set [1] the target is TARP γ-8 PBM (UniProt Q8WXS5).
In data set [2] the target is TRP channel PBM (Drosophila melanogaster) (UniProt P19334).

UniProt Q8WXS5, sequence (Q8WXS5 whole entry, looked up): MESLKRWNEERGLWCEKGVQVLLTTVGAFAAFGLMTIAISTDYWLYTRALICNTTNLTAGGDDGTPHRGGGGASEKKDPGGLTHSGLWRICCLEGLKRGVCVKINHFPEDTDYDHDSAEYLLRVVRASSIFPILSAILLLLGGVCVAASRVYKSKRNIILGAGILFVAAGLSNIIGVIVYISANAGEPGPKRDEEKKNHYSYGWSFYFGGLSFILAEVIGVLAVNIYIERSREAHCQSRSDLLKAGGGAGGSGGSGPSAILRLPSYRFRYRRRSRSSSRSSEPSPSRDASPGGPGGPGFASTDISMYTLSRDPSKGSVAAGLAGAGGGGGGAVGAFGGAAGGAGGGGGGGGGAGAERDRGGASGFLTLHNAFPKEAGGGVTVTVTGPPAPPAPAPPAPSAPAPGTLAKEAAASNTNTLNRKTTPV

Turning to PSD-95 PDZ2 (from UniProt P78352), the Kd in data set [1] is 40 µM.
Consider INAD PDZ3 (from UniProt Q24008), for which the equilibrium dissociation constant (Kd) in data set [2] was 0.13 µM.
